Measured values taken from paper PMC11633110.
Each block holds one substance with its values, some of them ahead of it.

Assays:
[1] = target: His-tagged recombinant SydR (SydR′), wild type (Sinorhizobium meliloti); assay: cross-linking; intersubunit disulfide bond assay: proteins reduced in 100 mM DTT for 2 h, desalted, oxidised with 100 mM NaOCl for 30 min, 100 mM N-ethylmaleimide for 2 h at room temperature, 10% non-reducing SDS-PAGE; shows covalent (disulfide) dimers only
[2] = target: T1, SydR' (WT, CC) (Sinorhizobium meliloti Rm2011) (UniProt Q92XY2); assay: EMSA; details: 10 mM Tris-HCl pH 8, 50 mM KCl, 0.5 mM EDTA, 10% glycerol, 0.5 mM DTT, 10 nM DNA, 25°C 25 min; 8% PAGE in 0.5x TBE
T1 sequence: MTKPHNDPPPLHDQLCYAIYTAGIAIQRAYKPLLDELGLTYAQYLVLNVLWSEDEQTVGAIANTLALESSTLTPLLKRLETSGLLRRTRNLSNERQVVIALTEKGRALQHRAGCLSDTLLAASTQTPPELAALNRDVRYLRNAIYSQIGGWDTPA

[3] = target: SydRC114S (CS) (Sinorhizobium meliloti); assay: cross-linking; intersubunit disulfide bond assay: proteins reduced in 100 mM DTT for 2 h, desalted, oxidised with 100 mM NaOCl for 30 min, 100 mM N-ethylmaleimide for 2 h at room temperature, 10% non-reducing SDS-PAGE; shows covalent (disulfide) dimers only
[4] = target: SydRC16S (SC) (Sinorhizobium meliloti); assay: as above

Substance: His-tagged recombinant SydR (SydR′), wild type (natural protein)
stoichiometry N [1]: 2

Substance: CCGCCTTCCAGATCAGTACCGGCTTGCTTAGCCAAGCGCTCGGCCAAACGGACTGAGGCCTCCGTTGCGATCCACCCAGGCGACACCCGCACGACCCGGATACCTTTGGACGAAATTTCCTTCGCTATCGACTTGCCG (double strand) [SMa2019 internal fragment, 138 bp]
binding [2]: no binding

Substance: TCTGGGCTCCTTTGCGCACCAATATAATCAAGATTACCGCGAAAACCAATATCGCGATAAGAGATATGTTGACGAGCAGTTCAATATCTGACAACTTAAATATATCGCGATAACAGTTATCGCTATCAACGAAAGGAAAAAGCC (double strand) [sydR-SMa2023 intergenic region, 144 bp]
binding [2]: binds

The remaining lines, values ahead:

stoichiometry N [3]: 2
Substance: SydRC114S (CS) (natural protein)

stoichiometry N [4]: 2
Substance: SydRC16S (SC) (natural protein)
